From US20220195015A1 (published 2022)
Changes are numbered by the printed parent chain.

B1: C050 (antibody, V domains shown)
VH: EVQLVESGGGLFQPGGSLRLSCAASGFSVRNNYVSWVRQAPGKGLEWVSVIYSGGTTYYADSVKGRFTISRDISENTLYLQMNSLRAEDTAVYYCAREGDVEGLHDFWSGYSRDRYYFDYWGQGTLVTVSS
VL: QSALTQPASVSGSPGQSIIISCTGTSGDIGGYNYVSWYQQHPGKAPKLMIYDVSFRPSGVSNRFSGSKSDNTASLTISGLQAEDEADYYCSSFTGNNTRVFGTGTKVTVL
B2: C053 (antibody, V domains shown)
VH: B1 VH with F12I, S28I, R30S, V34M, E46D, I73N, E75K, L104Y, F107S
VL: QSALTQPASVSGSPGQSITISCTGSSSDVGGYNFVSWYQQHPGRAPKLMIYDVSNRPSGVSNRFSGSKSGNTASLTISGLQVEDEADYYCSSYTNNNTRVFGTGTKVTVL
B3: C051 (antibody, V domains shown)
VH: EVQLVESGGGLIQAGGSLRLSCAASGFGVRNNYMSWVRQAPGKGLEWVSVIYSGGTTYYADSVKGRFTISRDNSKNTVFLQMNSLRAEDTAVYYCAREGDVEGFSDLWSGYSRDRYYFDYWGQGTLVTVSS
VL: QSALTQPASVSGSPGQSITFSCTGTSSDVGGYNYVSWYQQYPGKAPKLLIYDVTNRPSGVSDRFSGSKSGNTASLTISGLQAEDEADYYCSSFTSSNTRVFGTGTKVTVL
B4: C164 (antibody, V domains shown)
VH: EVQLVESGGGLVQPGGSLRLSCAASGFSVSTKYMTWVRQAPGKGLEWVSVLYSGGSDYYADSVKGRFTISRDNSKNALYLQMNSLRVEDTGVYYCARDSSEVRDHPGHPGRSVGAFDIWGQGTMVTVSS
VL: QSALTQPASVSGSPGQSITISCTGTSNDVGSYTLVSWYQQYPGKAPKLLIFEVTKRSSGISNRFSGSKSGNTASLTISGLQGEDEADYYCCSYAGASTFVFGGGTKLTVL
B5: C055 (antibody, V domains shown)
VH: B4 VH with G55R, S56T, N73S, A77I, N83S, V92F, G120S
VL: B4 VL with T19A, V53D, T54S, K55Q, Q81R, A96S, S97H, L107V
B6: C143 (antibody, V domains shown)
VH: B4 VH
VL: B4 VL with V53G
B7: C058 (antibody, V domains shown)
VH: QVQLVQSGAEVKKPGASVKVSCKASGYIFTDYSMHWVRQAPGQGLEWIGWVNPNSGGTNYAQKFQGWVTMARDTSITTVYMELSRLKSDDTAVYFCARGPLFHRLVYDFWSGYHDGFDMWGQGTMVTVSS
VL: QSALTQPASVSGSPGQSITISCTGTSSDVGGYKFVSWYQQHPGKAPKLMIYEVSNRPSGVSNRFSGSKSGNTASLTISGLQAEDEADYYCNSYTSSSTWVFGGGTKLTVL
B8: C548 (antibody, V domains shown)
VH: QVQLVQSGAEVKKPGSSVKVSCKASGGTFSSYAISWVRQAPGQGLEWMGGIIPIFGTANYAQKFQGRVTITADESTSTAYMELSSLRSEDTAVYYCARREAYGPRDYYYYYGMDVWGQGTTVTVSS
VL: QSALTQPPSASASLGASVTLTCTLSSGYSNYKVDWYQQRPGKGPRFVMRVGTGGIVGSKGDGIPDRFSVLGSGLNRYLTIKNIQEEDESDYHCGADQGSGSNFVGVFGGGTKLTVL
B9: C564 (antibody, V domains shown)
VH: EVQLLESGGGLVQPGTSLRLSCAASGFTFSSYAMSWVRQAPGKGLEWVSAISSSGGSTYYADSVKGRFTISRDNSKNTLYLHMNSLRAEDTAVYYCATERIAVAGTRMYNWFDPWGQGTLVTVSS
VL: DIQMTQSPSSLSASVGDRVTLTCRASQSISSYLNWYQQKPGKAPNLLIYAASSLQSGVPSRFSGSGSGTDFTLTISSLQPEDFATYYCQQSYSAPPWTFGQGTKVEIK
B10: C544 (antibody, V domains shown)
VH: QVQLVQSGAEVKKPGASVKVSCKASGYTFSSHDINWVRQATGQGLEWVGWMNPNSGNTGSAQSFQGRVTLTRNASISTAYLELSSLRSEDTAVYFCARGFSLTWYFDLWGRGTLVTVSS
VL: SYELTQPPSVSAAPGKTARITCGGNNIGGKNVHWYQQKPGQAPVLVVFDDSDRPSGIPERFSGSNSGNTATLTISRVEAGDEADYYCQLWDSTSDHPDVVFGGGTQLTVL
B11: C552 (antibody, V domains shown)
VH: QVQLVESGGGVVQPGRSLRLSCAASGFTFSSYAMHWVRQAPGKGLEWVALISYDGSNKHYADSVKGRFTISRDNSKNTLYLQMNSLRAEDTAVYYCARAGTTNSDYFDYWGQGTLVTVSS
VL: SYELTQPPSVSVAPGKTARITCGGNNIGSKSVHWYQQKPGQAPVLVIYYDTDRPSGIPERFSGSNSGNTATLTISRVEAGDEADYYCQVWDSSSALWVFGGGTKLTVL
B12: C553 (antibody, V domains shown)
VH: B11 VH with S31N, A33E, M34I, L50G, N57T, H59Y, A88P, Y94F
VL: B11 VL with K16M, N26T, P39A, T51S, A95V
B13: C542 (antibody, V domains shown)
VH: EVQLVESGGGLVQPGGSLRLSCAASGLTVTSNYMSWVRQAPGRGLEWVSLIYPGGTTYYADSVKGRFTVSRDNSKNTLYLQMDSLRAEDTGVYYCARETLGRGGDCWGQGTLVTVSS
VL: DIQMTQSPSSLSASVGDRVTITCQASQDISNFLNWYQQKPGKAPKLLIYDASNLETGVPSRFSGSRSGTDFTFTISSLQPDDIATYYCQQYDNLPRSFGQGTKLEIK
B14: C213 (antibody, V domains shown)
VH: EVQLVESGGGLVKPGGSLRLSCAASGFTFSSYSMNWVRQAPGKGLEWVSSISSSSSYIYYADSVKGRFTISRDNAKNSLYLQMNSLRAEDTAVYYCARVQVGARGWVDYWGQGTLVTVSS
VL: NFMLTQPHSVSESPGKTVTISCTRSSGSIASNYVQWYQQRPGSAPTTVIYEDNERPSGVPDRFSGSIDSSSNSASLTISGLKTEDEADYYCQSYDRINWVFGGGTKLTVL
B15: C545 (antibody, V domains shown)
VH: B14 VH with V5L, S31D, N35T, S50F, S56T, N77S, S85R, A97T, V107A
VL: B14 VL with H8L, S43G, N53T, E54Q, Y94C, R96T, L110V
B16: C217 (antibody, V domains shown)
VH: B14 VH with S50F, S54R
VL: B14 VL with E54Q, R96S
B17: C558 (antibody, V domains shown)
VH: EVQLVQSGAEVKKPGESLKISCKVSGYTFTNYWIGWVRQMPGKGLEWMGIIYPGDSDTRYSPSFQGQVTISADKSIITAYLQWSSLKASDTAMYYCARVPSSSDYGDYGGFEYWGQGTLVTVSS
VL: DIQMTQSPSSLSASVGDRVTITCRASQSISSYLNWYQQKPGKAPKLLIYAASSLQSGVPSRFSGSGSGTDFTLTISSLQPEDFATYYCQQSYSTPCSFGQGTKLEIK
B18: C559 (antibody, V domains shown)
VH: B17 VH with Y52F, K74R, I77T, S84R
VL: DIQMTQSPSSLSASVGDRVTITCRASQTITIYLNWYQQKPGKAPKLLIYAASSLQSGVPSRFSGSGSGTDFTLTISSLQPEDFATYYCQQSYSTPCSFGQGTKLEIK
B19: C549 (antibody, V domains shown)
VH: QVQLVQSGAEVKKPGSSVKVSCKASGGTFSTSAISWVRQAPGQGLEWMGGIIPFFGTPNYAQKFQGRVTIIADESTTTAYMELSGLRFEDSAVYYCARREPYGPRDYYYFFGMDVWGPGTTVTVSS
VL: QSALTQPPFASASLGASVTLTCTLSSDYSYYKVDWYQQRPGKGPRFVIRVGPGGIVGSKGDGFPDRFSVLGSGLNRSLTINNIQEEDEGDYHCGADEGSGGTFVGVFGGGTKLTV

Target: SARS-CoV-2 spike receptor binding domain (RBD), wild type (SARS-CoV-2, UniProt P0DTC2 319-539)
Experiment: ELISA on coated RBD protein

| Binder | EC50 [ng/mL] |
| --- | --- |
| B1 | 1.93 |
| B2 | 1.53 |
| B3 | 1.65 |
| B4 | 1.41 |
| B5 | 1.25 |
| B6 | 2.01 |
| B7 | 2.28 |

Target: SARS-CoV-2 spike receptor binding domain (RBD), wild type (SARS-CoV-2, UniProt P0DTC2 319-539)
Experiment: ELISA, RBD protein coated, mAb titrated

| Binder | EC50 [ng/mL] |
| --- | --- |
| B8 | 1.72 |
| B9 | 14.6 |
| B10 | 2.34 |
| B11 | 1.08 |
| B12 | 1.19 |
| B13 | 1.07 |
| B14 | 2.02 |
| B15 | 3.68 |
| B16 | 2.28 |
| B17 | 2.41 |
| B18 | 2.89 |
| B19 | 1.76 |
